Laboratory results published in publication doi:10.1101/2022.09.23.509211 (bioRxiv, 2022).

Target: Rabbit skeletal muscle actin (actin filaments, F-actin) (rabbit, UniProt P68135 1-377)
Assay: co-sedimentation

B1: Mouse metallothionein-3 (MT-3), recombinant, cleaved WT MT-3 (natural protein)
chain: not shown
Kd: > 20 µM
